Assays:
[1] = target: mouse DNase X on wild-type bone marrow-derived macrophages (BMDMs) (mouse) (UniProt Q9D7J6); experiment: cell-based or functional assay
[2] = target: T1, human DNase X on the cell surface (HEK293 cells, human primary macrophages derived from peripheral blood … (human, UniProt P49184 19-302)); experiment: immunofluorescence of non-permeabilised HEK293 cells incubated with coated beads
T1 construct: whole, on cells; Endogenous protein on non-permeabilised cells; also called cell surface-exposed DNase X; surface DNase X
T1 sequence: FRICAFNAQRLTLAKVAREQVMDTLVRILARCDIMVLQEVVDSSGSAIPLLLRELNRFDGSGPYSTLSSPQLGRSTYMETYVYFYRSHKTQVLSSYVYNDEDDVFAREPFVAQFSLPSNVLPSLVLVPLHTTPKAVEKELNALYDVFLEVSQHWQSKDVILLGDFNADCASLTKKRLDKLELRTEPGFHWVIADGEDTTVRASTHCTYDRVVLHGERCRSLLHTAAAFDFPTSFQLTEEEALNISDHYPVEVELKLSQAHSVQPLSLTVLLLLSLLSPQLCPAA

[3] = target: T2, native human DNase X (deoxyribonuclease 1-like 1) from THP-1 cell lysate (human, UniProt P49184 19-302, limits assumed); experiment: far-Western blot, THP-1 cell lysate, anti-DNase X
T2 construct: GPI-anchored cell surface protein; also called DNase 1L1; DN1L1
T2 sequence (looked up): T1 sequence

[4] = target: T3, mouse DNase X on wild-type bone marrow-derived macrophages (BMDMs) (mouse, UniProt Q9D7J6 38-314); experiment: bead binding to BMDMs of wild-type and DNase X-/- mice, 30 min at 4 C
T3 construct: whole, on cells
T3 sequence: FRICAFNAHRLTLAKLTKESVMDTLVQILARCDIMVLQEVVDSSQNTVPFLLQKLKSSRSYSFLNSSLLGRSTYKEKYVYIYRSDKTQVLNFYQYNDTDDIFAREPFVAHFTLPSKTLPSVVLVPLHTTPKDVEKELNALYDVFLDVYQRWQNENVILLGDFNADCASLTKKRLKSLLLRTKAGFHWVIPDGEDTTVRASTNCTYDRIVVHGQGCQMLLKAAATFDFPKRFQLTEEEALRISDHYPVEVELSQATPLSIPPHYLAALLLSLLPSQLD

## native full-length EtpE (ECH1038, entry triggering protein of Ehrlichia) of E. chaffeensis Arkansas (ligand)
[1]
  decrease in E. chaffeensis binding and entry into BMDMs at 4 h pi, DNase X-/- against wild type: 60%

B1: rEtpE-C (recombinant C-terminal region of EtpE/ECH1038, residues 1656-1963, C-terminal histidine-tagged fusion protein) (ligand)
chain: ELLSLVGGHRNASSNNANNGRSLSQGIRYKITFKISFAQNYFPVDEIIKLQQDANNMEYGVHGVHRTDIIALWSYISYASSKSKWLFKRYQSFAGLLFEIGAWGKCTSAERVFFTSMNRYSEKLPLKVYNFIRKITTGDFARKFSGMQSLYTYKQRVYDYVMHCVLRGGLGGECSDMTLREISNELHKLKQEIYSNYDVFRDLGITNGQQEVLLLINVMMLNYAMSDLLVSTTQVNSMLADVRSSLSRTAHCLPYGTVSQLQRSVSHMKYGEYSNYRASVVALWACISCLASFNDDMEPLIKLMLEGD
notes: Used renatured on membrane or Ni matrix, or coated on 0.5 um latex beads; also called rEtpE-C-coated beads; not shown: C-terminal histidine tag from pET33b(+)
[2]
  binding result: binds
[3]
  binding result: binds
[4]
  binding result: binds
